Tests used:
Assay in all cases: cell-based or functional assay
[1] = target: HIV-1 Env of pseudovirus 0260.v5.c36 (HIV-1)
[2] = target: HIV-1 Env of pseudovirus 1394C9G1(Rev-) (HIV-1)
[3] = target: HIV-1 Env of pseudovirus 211-9 (HIV-1)
[4] = target: HIV-1 Env of pseudovirus 246F C1G (HIV-1)
[5] = target: HIV-1 Env of pseudovirus 3103.v3.c10 (HIV-1)
[6] = target: HIV-1 Env of pseudovirus 62357_14_03_4589 (HIV-1)
[7] = target: HIV-1 Env of pseudovirus 6244_13_85_4576 (HIV-1)
[8] = target: HIV-1 Env of pseudovirus 6811.v7.c18 (HIV-1)
[9] = target: HIV-1 Env of pseudovirus 89-F1_2_25 (HIV-1)
[10] = target: HIV-1 Env of pseudovirus CAP210.2.00.E8 (HIV-1)
[11] = target: HIV-1 Env of pseudovirus CAP45.2.00.G3 (HIV-1)
[12] = target: HIV-1 Env of pseudovirus CNE20 (HIV-1)
[13] = target: HIV-1 Env of pseudovirus CNE21 (HIV-1)
[14] = target: HIV-1 Env of pseudovirus CNE58 (HIV-1)
[15] = target: HIV-1 Env of pseudovirus Ce1172_H1 (HIV-1)
[16] = target: HIV-1 Env of pseudovirus Ce704809221_1B3 (HIV-1)
[17] = target: HIV-1 Env of pseudovirus Du156.12 (HIV-1)
[18] = target: HIV-1 Env of pseudovirus Q451.e2 (HIV-1)
[19] = target: HIV-1 Env of pseudovirus Q769.d22 (HIV-1)
[20] = target: HIV-1 Env of pseudovirus RHPA4259.7 (HIV-1)
[21] = target: HIV-1 Env of pseudovirus T251-18 (HIV-1)
[22] = target: HIV-1 Env of pseudovirus T255-34 (HIV-1)
[23] = target: HIV-1 Env of pseudovirus T278-50 (HIV-1)
[24] = target: HIV-1 Env of pseudovirus ZM214M.PL15 (HIV-1)
[25] = target: HIV-1 envelope of pseudovirus 1394C9G1(Rev-) (HIV-1)
[26] = target: HIV-1 envelope of pseudovirus 191084 B7-19 (HIV-1)
[27] = target: HIV-1 envelope of pseudovirus 211-9 (HIV-1)
[28] = target: HIV-1 envelope of pseudovirus 231966.c02 (HIV-1)
[29] = target: HIV-1 envelope of pseudovirus 249M B10 (HIV-1)
[30] = target: HIV-1 envelope of pseudovirus 62357_14_03_4589 (HIV-1)
[31] = target: HIV-1 envelope of pseudovirus 6240_08_TA5_4622 (HIV-1)
[32] = target: HIV-1 envelope of pseudovirus 6545.v4.c1 (HIV-1)
[33] = target: HIV-1 envelope of pseudovirus 89-F1_2_25 (HIV-1)
[34] = target: HIV-1 envelope of pseudovirus AC10.0.29 (HIV-1)
[35] = target: HIV-1 envelope of pseudovirus BJOX015000.11.5 (HIV-1)
[36] = target: HIV-1 envelope of pseudovirus BJOX025000.01.1 (HIV-1)
[37] = target: HIV-1 envelope of pseudovirus C1080.c03 (HIV-1)
[38] = target: HIV-1 envelope of pseudovirus C2101.c01 (HIV-1)
[39] = target: HIV-1 envelope of pseudovirus HIV-001428-2.42 (HIV-1)
[40] = target: HIV-1 envelope of pseudovirus HIV-16845-2.22 (HIV-1)
[41] = target: HIV-1 envelope of pseudovirus Q259.d2.17 (HIV-1)
[42] = target: HIV-1 envelope of pseudovirus RHPA4259.7 (HIV-1)
[43] = target: HIV-1 envelope of pseudovirus THRO4156.18 (HIV-1)
[44] = target: HIV-1 envelope of pseudovirus WEAU_d15_410_787 (HIV-1)
[45] = target: HIV-1 envelope of pseudovirus X1632_S2_B10 (HIV-1)
[46] = target: HIV-1 envelope of pseudovirus ZM109F.PB4 (HIV-1)
[47] = target: HIV-1 envelope spike of pseudovirus PVO.4 (HIV-1)
[48] = target: HIV-1 envelope spike of pseudovirus YU-2 (HIV-1) (UniProt P35961)
Sequence of HIV-1 envelope spike of pseudovirus YU-2 (HIV-1) (P35961 32-843): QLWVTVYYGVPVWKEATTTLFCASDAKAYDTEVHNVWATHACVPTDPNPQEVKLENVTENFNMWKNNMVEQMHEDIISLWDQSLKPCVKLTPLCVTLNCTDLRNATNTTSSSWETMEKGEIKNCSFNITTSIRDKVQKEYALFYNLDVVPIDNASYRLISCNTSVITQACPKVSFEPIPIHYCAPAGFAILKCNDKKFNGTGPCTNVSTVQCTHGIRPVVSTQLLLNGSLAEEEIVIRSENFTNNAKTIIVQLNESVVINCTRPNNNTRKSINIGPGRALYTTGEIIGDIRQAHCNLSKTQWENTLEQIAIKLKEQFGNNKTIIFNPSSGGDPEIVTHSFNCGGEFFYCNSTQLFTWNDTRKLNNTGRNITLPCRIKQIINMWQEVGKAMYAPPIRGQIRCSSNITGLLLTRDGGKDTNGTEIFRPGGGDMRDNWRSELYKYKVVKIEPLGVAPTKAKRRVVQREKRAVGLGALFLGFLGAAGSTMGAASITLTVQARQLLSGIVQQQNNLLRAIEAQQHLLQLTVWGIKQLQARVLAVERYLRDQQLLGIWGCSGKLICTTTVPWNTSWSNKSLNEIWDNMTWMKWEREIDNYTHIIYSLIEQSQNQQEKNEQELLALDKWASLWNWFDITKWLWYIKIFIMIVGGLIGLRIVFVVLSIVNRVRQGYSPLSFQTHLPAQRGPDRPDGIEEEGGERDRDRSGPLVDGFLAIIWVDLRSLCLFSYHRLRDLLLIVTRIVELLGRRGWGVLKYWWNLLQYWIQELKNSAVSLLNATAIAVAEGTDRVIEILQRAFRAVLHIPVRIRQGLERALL

[49] = target: Murine leukemia virus (MuLV) envelope on pseudovirus (Murine leukemia virus)

Sequence of 10-1074 (antibody) (VH): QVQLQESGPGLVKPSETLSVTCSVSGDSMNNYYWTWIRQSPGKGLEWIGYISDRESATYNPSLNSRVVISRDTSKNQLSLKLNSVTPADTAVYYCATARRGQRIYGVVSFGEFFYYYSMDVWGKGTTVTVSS
Sequence of 10-1074 (antibody) (V domain): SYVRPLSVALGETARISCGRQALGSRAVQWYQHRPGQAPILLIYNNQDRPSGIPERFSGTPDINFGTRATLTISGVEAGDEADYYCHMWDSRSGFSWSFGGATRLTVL

## PGT121 (antibody)
[1]
  IC80 (TZM-bl neutralization): 0.152 µg/mL
[2]
  IC80 (TZM-bl neutralization): 3.37 µg/mL
[3]
  IC80 (TZM-bl neutralization): 8.84 µg/mL
[4]
  IC80 (TZM-bl neutralization): 0.287 µg/mL
[5]
  IC80 (TZM-bl neutralization): 0.11 µg/mL
[6]
  IC80 (TZM-bl neutralization): 45.6 µg/mL
[7]
  IC80 (TZM-bl neutralization): 1.88 µg/mL
[8]
  IC80 (TZM-bl neutralization): 0.017 µg/mL
[9]
  IC80 (TZM-bl neutralization): > 50 µg/mL
[10]
  IC80 (TZM-bl neutralization): > 50 µg/mL
[11]
  IC80 (TZM-bl neutralization): 6.54 µg/mL
[12]
  IC80 (TZM-bl neutralization): 8 ng/mL
[13]
  IC80 (TZM-bl neutralization): 0.061 µg/mL
[14]
  IC80 (TZM-bl neutralization): > 50 µg/mL
[15]
  IC80 (TZM-bl neutralization): 0.088 µg/mL
[16]
  IC80 (TZM-bl neutralization): 0.492 µg/mL
[17]
  IC80 (TZM-bl neutralization): 0.033 µg/mL
[18]
  IC80 (TZM-bl neutralization): > 50 µg/mL
[19]
  IC80 (TZM-bl neutralization): > 50 µg/mL
[20]
  IC80 (TZM-bl neutralization): 0.054 µg/mL
[21]
  IC80 (TZM-bl neutralization): > 50 µg/mL
[22]
  IC80 (TZM-bl neutralization): > 50 µg/mL
[23]
  IC80 (TZM-bl neutralization): > 50 µg/mL
[24]
  IC80 (TZM-bl neutralization): 3.15 µg/mL
[25]
  IC50 (TZM-bl neutralization): 0.486 µg/mL
[26]
  IC50 (TZM-bl neutralization): 0.042 µg/mL
[27]
  IC50 (TZM-bl neutralization): 1.46 µg/mL
[28]
  IC50 (TZM-bl neutralization): > 50 µg/mL
[29]
  IC50 (TZM-bl neutralization): > 50 µg/mL
[30]
  IC50 (TZM-bl neutralization): 1.04 µg/mL
[31]
  IC50 (TZM-bl neutralization): 0.128 µg/mL
[32]
  IC50 (TZM-bl neutralization): > 50 µg/mL
[33]
  IC50 (TZM-bl neutralization): > 50 µg/mL
[34]
  IC50 (TZM-bl neutralization): 0.037 µg/mL
[35]
  IC50 (TZM-bl neutralization): > 50 µg/mL
[36]
  IC50 (TZM-bl neutralization): > 50 µg/mL
[37]
  IC50 (TZM-bl neutralization): > 50 µg/mL
[38]
  IC50 (TZM-bl neutralization): > 50 µg/mL
[39]
  IC50 (TZM-bl neutralization): 0.028 µg/mL
[40]
  IC50 (TZM-bl neutralization): 12.7 µg/mL
[41]
  IC50 (TZM-bl neutralization): 8.99 µg/mL
[42]
  IC50 (TZM-bl neutralization): 0.014 µg/mL
[43]
  IC50 (TZM-bl neutralization): > 50 µg/mL
[44]
  IC50 (TZM-bl neutralization): 0.083 µg/mL
[45]
  IC50 (TZM-bl neutralization): > 50 µg/mL
[46]
  IC50 (TZM-bl neutralization): 7.89 µg/mL
[47]
  IC50 (TZM-bl neutralization assay): 0.147 µg/mL
  IC80 (TZM-bl neutralization assay): 1.1 µg/mL
[48]
  IC50 (TZM-bl neutralization assay): 0.098 µg/mL
  IC80 (TZM-bl neutralization assay): 0.356 µg/mL
[49]
  IC50 (TZM-bl neutralization assay): > 40 µg/mL
  IC80 (TZM-bl neutralization assay): > 40 µg/mL

## 10-1074 (antibody)
[1]
  IC80 (TZM-bl neutralization): 0.16 µg/mL
[2]
  IC80 (TZM-bl neutralization): 0.191 µg/mL
[3]
  IC80 (TZM-bl neutralization): 0.425 µg/mL
[4]
  IC80 (TZM-bl neutralization): 0.111 µg/mL
[5]
  IC80 (TZM-bl neutralization): 0.101 µg/mL
[6]
  IC80 (TZM-bl neutralization): > 50 µg/mL
[7]
  IC80 (TZM-bl neutralization): 0.922 µg/mL
[8]
  IC80 (TZM-bl neutralization): 0.01 µg/mL
[9]
  IC80 (TZM-bl neutralization): > 50 µg/mL
[10]
  IC80 (TZM-bl neutralization): > 50 µg/mL
[11]
  IC80 (TZM-bl neutralization): > 50 µg/mL
[12]
  IC80 (TZM-bl neutralization): 5 ng/mL
[13]
  IC80 (TZM-bl neutralization): 0.181 µg/mL
[14]
  IC80 (TZM-bl neutralization): 0.968 µg/mL
[15]
  IC80 (TZM-bl neutralization): 0.166 µg/mL
[16]
  IC80 (TZM-bl neutralization): 0.696 µg/mL
[17]
  IC80 (TZM-bl neutralization): 0.076 µg/mL
[18]
  IC80 (TZM-bl neutralization): > 50 µg/mL
[19]
  IC80 (TZM-bl neutralization): > 50 µg/mL
[20]
  IC80 (TZM-bl neutralization): 0.118 µg/mL
[21]
  IC80 (TZM-bl neutralization): 7.39 µg/mL
[22]
  IC80 (TZM-bl neutralization): > 50 µg/mL
[23]
  IC80 (TZM-bl neutralization): 18.3 µg/mL
[24]
  IC80 (TZM-bl neutralization): 2.37 µg/mL
[25]
  IC50 (TZM-bl neutralization): 0.05 µg/mL
[26]
  IC50 (TZM-bl neutralization): 0.032 µg/mL
[27]
  IC50 (TZM-bl neutralization): 0.112 µg/mL
[28]
  IC50 (TZM-bl neutralization): > 50 µg/mL
[29]
  IC50 (TZM-bl neutralization): > 50 µg/mL
[30]
  IC50 (TZM-bl neutralization): > 50 µg/mL
[31]
  IC50 (TZM-bl neutralization): 0.068 µg/mL
[32]
  IC50 (TZM-bl neutralization): > 50 µg/mL
[33]
  IC50 (TZM-bl neutralization): > 50 µg/mL
[34]
  IC50 (TZM-bl neutralization): 0.022 µg/mL
[35]
  IC50 (TZM-bl neutralization): > 50 µg/mL
[36]
  IC50 (TZM-bl neutralization): > 50 µg/mL
[37]
  IC50 (TZM-bl neutralization): > 50 µg/mL
[38]
  IC50 (TZM-bl neutralization): > 50 µg/mL
[39]
  IC50 (TZM-bl neutralization): 0.044 µg/mL
[40]
  IC50 (TZM-bl neutralization): 1.17 µg/mL
[41]
  IC50 (TZM-bl neutralization): > 50 µg/mL
[42]
  IC50 (TZM-bl neutralization): 0.021 µg/mL
[43]
  IC50 (TZM-bl neutralization): > 50 µg/mL
[44]
  IC50 (TZM-bl neutralization): 0.104 µg/mL
[45]
  IC50 (TZM-bl neutralization): > 50 µg/mL
[46]
  IC50 (TZM-bl neutralization): > 50 µg/mL
[47]
  IC50 (TZM-bl neutralization assay): 0.178 µg/mL
  IC80 (TZM-bl neutralization assay): 0.766 µg/mL
[48]
  IC50 (TZM-bl neutralization assay): 0.143 µg/mL
  IC80 (TZM-bl neutralization assay): 0.398 µg/mL
[49]
  IC50 (TZM-bl neutralization assay): > 40 µg/mL
  IC80 (TZM-bl neutralization assay): > 40 µg/mL

Reference: patent US12338277
